According to patent US20160108093A1 (WISCONSIN ALUMNI RESEARCH FOUNDATION, published 2016):
Where no end group is shown, it is not given here. [ ]: non-standard residue; d: D form.

B1: G16 (peptide)
peptide: Ac-PRRYTIAALLSPYSWS-NH2
notes: also called 16-mer linear peptide
B2: CG2 (peptide)
peptide: cyclo(SKV[dP]PTIAALLSPYSYSQ)
SMILES: CC[C@H](C)[C@@H]1NC(=O)[C@H]([C@@H](C)O)NC(=O)[C@@H]2CCCN2C(=O)[C@H]2CCCN2C(=O)[C@H](C(C)C)NC(=O)[C@H](CCCCN)NC(=O)[C@H](CO)NC(=O)[C@H](CCC(N)=O)NC(=O)[C@H](CO)NC(=O)[C@H](Cc2ccc(O)cc2)NC(=O)[C@H](CO)NC(=O)[C@H](Cc2ccc(O)cc2)NC(=O)[C@@H]2CCCN2C(=O)[C@H](CO)NC(=O)[C@H](CC(C)C)NC(=O)[C@H](CC(C)C)NC(=O)[C@H](C)NC(=O)[C@H](C)NC1=O
B3: LG3 (peptide)
peptide: SKVVT[dP]PRYTIAALLSPYSYSQ
B4: CG3 (peptide)
peptide: cyclo(SKVVT[dP]PRYTIAALLSPYSYSQ)
SMILES: CC[C@H](C)[C@@H]1NC(=O)[C@H]([C@@H](C)O)NC(=O)[C@H](Cc2ccc(O)cc2)NC(=O)[C@H](CCCNC(=N)N)NC(=O)[C@@H]2CCCN2C(=O)[C@H]2CCCN2C(=O)[C@H]([C@@H](C)O)NC(=O)[C@H](C(C)C)NC(=O)[C@H](C(C)C)NC(=O)[C@H](CCCCN)NC(=O)[C@H](CO)NC(=O)[C@H](CCC(N)=O)NC(=O)[C@H](CO)NC(=O)[C@H](Cc2ccc(O)cc2)NC(=O)[C@H](CO)NC(=O)[C@H](Cc2ccc(O)cc2)NC(=O)[C@@H]2CCCN2C(=O)[C@H](CO)NC(=O)[C@H](CC(C)C)NC(=O)[C@H](CC(C)C)NC(=O)[C@H](C)NC(=O)[C@H](C)NC1=O

What was measured:
[1] = molecular target: the molecule itself; experiment: self-association: PICUP cross-linking of the peptide alone at 36 µM, gel, silver staining
Description: Peptides were also cross-linked by PICUP and analyzed for self-association. […] Cross-linked samples were then heated at 95° C. for 5 min and separated on a 10-20% Tris-Tricine gradient gel. Peptides were visualized by silver staining (SilverStain Kit, Pierce, Rockford, Ill.).
Peptide self-assembly was probed by photo-induced crosslinking (PICUP) followed by gel electrophoresis.

Aβ (1-42) = Aβ (1-42) (UniProt P05067 672-713); experiment: cell-based or functional assay

| Binder | binding result [1] | Aβ toxicity, MTS assay with primary mouse neuronal cultures (10 µM Aβ) (Aβ (1-42)) |
| --- | --- | --- |
| B1 | binds |  |
| B2 |  | 10 µM |
| B3 |  | 10 µM |
| B4 |  | 10 µM |
